According to PMC3417418 (2012):
Residue numbers refer to the chain shown, from its start.

How the values were obtained:
CXCR3 [1] = biological target: T1, CXCR3 (Homo sapiens, UniProt P49682); test: competition with 125I-CXCL11 on L1.2 cells
T1 chain: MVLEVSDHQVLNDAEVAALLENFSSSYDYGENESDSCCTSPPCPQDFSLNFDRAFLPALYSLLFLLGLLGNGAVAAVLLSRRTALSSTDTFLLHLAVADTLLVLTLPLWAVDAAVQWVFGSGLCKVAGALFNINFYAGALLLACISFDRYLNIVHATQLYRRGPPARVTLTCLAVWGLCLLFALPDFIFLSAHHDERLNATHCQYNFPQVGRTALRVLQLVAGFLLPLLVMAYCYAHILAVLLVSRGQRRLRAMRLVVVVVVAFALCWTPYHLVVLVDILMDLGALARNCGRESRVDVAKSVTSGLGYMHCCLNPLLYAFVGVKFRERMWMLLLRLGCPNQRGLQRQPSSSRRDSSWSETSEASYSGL

CXCR3 [2] = biological target: T1, CXCR3; test: competition with 125I-CXCL10 on L1.2 cells
CXCR3 [3] = biological target: T2, CXCR3 (Homo sapiens, UniProt P49682); test: homologous competition 125I radioligand binding on L1.2 cells
T2 chain: T1 chain with D112N

CXCR3 [4] = biological target: T3, CXCR3 (Homo sapiens, UniProt P49682); test: as above
T3 chain: T1 chain with D297N

CXCR3 [5] = biological target: T4, CXCR3 (Homo sapiens, UniProt P49682); test: as above
T4 chain: T1 chain with D278N

CXCR3 [6] = biological target: T5, CXCR3 (Homo sapiens, UniProt P49682); test: as above
T5 chain: T1 chain with D282N

CXCR3 [7] = biological target: T6, CXCR3 (Homo sapiens, UniProt P49682); test: as above
T6 chain: T1 chain with D195N

CXCR3 [8] = biological target: T7, CXCR3 (Homo sapiens, UniProt P49682); test: as above
T7 chain: T1 chain with E196Q

IC50 (CXCR3 [1]): 1.2 nM
IC50 (CXCR3 [2]): 0.4 nM
Kd (CXCR3 [3]): 3.8 nM
Kd (CXCR3 [4]): 26.3 nM
Kd (CXCR3 [5]): 2.6 nM
Kd (CXCR3 [6]): 1.4 nM
Kd (CXCR3 [7]): 16 nM
Kd (CXCR3 [8]): 0.4 nM
B1: CXCL11 (protein)
chain: FPMFKRGRCLCIGPGVKAVKVADIEKASIMYPSNNCDKIEVIITLKENKGQRCLNPKSKQARLIIKKVERKNF
